Consider three substances from patent publication US20120264231A1, “ASSAY FOR ORAI CALCIUM CHANNEL REGULATORS” (IMMUNE DISEASE INSTITUTE, INC., priority 2009, published 2012).

One assay addresses ORAI1 (Homo sapiens, UniProt Q96D31). Kind of assay: Confocal localization of mCherry-STIM1 proteins in HEK293 cells. The assay is classed as cell-based. Further details: expressed in transfected cells; host or cells: HEK293. Conditions: mCherry-STIM1 proteins coexpressed with ORAI1 in HEK293 cells. The source says: The localization of mCherry-STIM1 proteins in transiently-transfected HEK293 cells was investigated. mCherry-STIM1 (233-683), or (233-498) or (233-463) expressed alone, and also mCherry-STIM (233-683), or (233-498) or (233-463) expressed with ORAI-EYFP in the plasmid ratios 1:0, 0.5:1, 1:1, and 2:1 were examined. […] This is consistent with the functional assay in T cells and with recent reports in the literature (Muik, M., et al., J Biol Chem 283, 8014-8022 (2008); Penna, A., et al., Nature 456, 116-120 (2008); Ji, W., et al., Proc Natl Acad Sci USA 105, 13668-13673 (2008); Yuan, J. P., et al., Nat Cell Biol 11, 337-34 3 (2009); Muik, M., et al., J Biol Chem 284, 8421-8426 (2009); Park, C. Y., et al., Cell 136, 876-890 (2009)). […] The contrasting failure to detect binding of STIM 1 (233-463) in vitro might conceivably reflect the state of the bacterially-expressed protein as a mixture of trimers, tetramers, and undefined large aggregates. A more intriguing possibility, however, is that a weak interaction of STIM 1 (233-463) with ORAI is stabilized and rendered productive by additional proteins in mammalian cells.
An ORAI1-YFP expression plasmid was constructed by cloning the human ORAI1 cDNA (accession number NM_032790) into the vector pEYFP-N1 between the EcoRI and AgeI sites, in frame with the YFP coding sequence. mCherry-tagged STIM 1^CT fragments were made by subcloning mCherry between the BamHI and EcoRI sites of the vector pcDNA3.1(+) (Invitrogen), and subsequently inserting cDNA encoding STIM1^CT fragments between the EcoRI and XhoI sites.
HEK293 cells were transiently transfected with ORAI-YFP or mCherry-STIM plasmids using Lipofectamine 2000 (Invitrogen) according to the manufacturer's instructions. At 48 h post-transfection, confocal imaging was performed on a Zeiss LSM 510 laser scanning microscope with a 100× oil-immersion objective lens. YFP was excited at 488 nm with an argon laser and mCherry at 543 nm with a HeNe laser. All the experiments were carried out with cells bathed in Hanks' Balanced Salt Solution at 37° C.

The nature of assay [1]: Fura-2 Ca^2+ flux assay, control vesicles. The assay is classed as biochemical, S cerevisiae. The following applies: STIM 1 cytoplasmic fragments 2 μM. The protocol:
It was next asked whether STIM-ORAI protein-protein interaction is sufficient to open the ORAI Ca^2+ channel. Vesicles obtained from S cerevisiae expressing ORAI were incubated under conditions where Fura-2 was the principal Ca^2+ buffer in the extravesicular solution in order to monitor Ca^2+ efflux (Meyer, T., et al., Biochemistry 29, 32-37 (1990)).
S cerevisiae strain NY17 featuring the temperature-sensitive sec6-4 mutation was used for protein expression and purification of secretory vesicles as described (Nakamoto, R. K., et al., J Biol Chem 266, 7940-7949 (1991); Coury, L. A., et al., Methods Enzymol 306, 169-186 (1999)). Cells were grown to midlog phase at 25° C. in uracil-deficient synthetic complete medium containing glucose, which was subsequently exchanged for galactose to induce transgene expression over a period of 8 hours. The temperature was then switched to 37° C. for 3 hours to force intracellular accumulation of secretory vesicles. […] Myc-tagged ORAI1 was detected in Western blots using the murine anti-Myc monoclonal antibody 9E10. […]
Fura-2 spectra were recorded at ambient temperature, 22-25° C., in 20 mM Tris pH 7.4, 100 mM KCl, containing 10 μM metal-free Fura-2. Excitation spectra were recorded by scanning from 300-450 nm while monitoring emission at 510 nm, using a 2-4 nm slitwidth for both excitation and emission. […]

Sequence of ORAI1 (Q96D31 whole entry): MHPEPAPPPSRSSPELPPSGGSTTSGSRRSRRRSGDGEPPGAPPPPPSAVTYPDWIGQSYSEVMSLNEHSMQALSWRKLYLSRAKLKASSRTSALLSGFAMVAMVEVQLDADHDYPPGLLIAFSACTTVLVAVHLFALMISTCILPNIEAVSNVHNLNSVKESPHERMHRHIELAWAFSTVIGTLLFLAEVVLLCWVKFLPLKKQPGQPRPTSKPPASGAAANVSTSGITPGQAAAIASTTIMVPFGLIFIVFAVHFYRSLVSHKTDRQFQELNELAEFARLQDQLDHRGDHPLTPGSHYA

Regarding “STIM1 (233-463): truncated mouse STIM1 cytoplasmic fragment, residues 233-463, His-tagged recombinant protein”, the “localization at plasma membrane” value in the assay with ORAI1 is “decorated the plasma membrane”. For “STIM1 (233-498): truncated mouse STIM1 cytoplasmic fragment, residues 233-498, His-tagged recombinant protein”, in the assay with ORAI1, the “localization at plasma membrane” value was “decorated the plasma membrane”. The “Ca^2+ release from control vesicles (Fura-2)” value in assay [1] is “neither STIM 1 fragment was effective”. For “STIM1^CT: cytoplasmic region of STIM1, mouse residues 233-685, His-tagged recombinant protein expressed in E coli”, in that order: “decorated the plasma membrane” and “neither STIM 1 fragment was effective”.
